“Also recorded” adds a separate entry of the source.
Tests used:
histone H2A = target: T1, histone H2A (Homo sapiens, UniProt Q7L7L0); assay: ELISA binding assay; details: immobilized recombinant histone
T1 construct: purchased NEB
Method: (§1) Recombinant human histone (NEB) was adjusted to a concentration of 1 μg/mL in TBS, added to a 96 well ELISA plate, and immobilized at 4° C. overnight. The solution was discarded, a blocking buffer (TBS, 0.1% Triton-X100, 1% BSA) was added, and the plate was incubated at room temperature for 2 hr. The plate was washed four times with a wash buffer (TBS, 0.1% Triton-X100), recombinant PTX3 diluted to various concentrations with the blocking buffer was added to each well, and reacted at room temperature for 1 hr. After washing four times with the wash buffer, HRP-labeled antibody diluted with the blocking buffer was added, and reacted at room temperature for 1 hr. After washing four times with the wash buffer, TMB solution was added to carry out a color development reaction for 30 min, and the absorbance at 450 nm was measured. Assay was performed using all the buffers containing 4 mM CaCl2 or 4 mM EDTA.
(§2) The binding level between immobilized each recombinant histone and a tagged human PTX3 fragment was measured by binding assay (ELISA). For detection, HRP-labeled anti-His (6×His) antibody was used. ELISA was performed with duplicate wells for each point, and means and standard deviations were calculated from three independent experiments.

histone H2B = target: T2, histone H2B (Homo sapiens, UniProt Q16778); assay: ELISA binding assay; details: immobilized recombinant histone
T2 construct: purchased NEB
Method: as §1, §2

histone H4 on HUVEC = assay: Cytotoxic assay: suppression of histone cytotoxicity on HUVEC; type: cell-based, human; details: 1 hr culture, PI staining, FACS
Method: Normal human umbilical vein endothelial cells (HUVECs) were cultured in EGM2 medium (Clonetics). The cells after culture were washed with PBS, added with Opti-MEM medium containing an product of incubation of activated protein C (APC), PTX3, C reactive protein (CRP) or Serum amyloid P component (SAP) with histone for 1 hr, and the cells were further cultured for 1 hr. Propidium iodide (PI) was added to the medium after culture at a final concentration of 10 μg/mL, and the cells were stained for 10 min. The cells were washed with PBS, detached and analyzed by flow cytometry.
Using each recombinant histone instead of Calf Thymus Histones, a suppressive effect of full-length PTX3 or the N-terminal domain of PTX3 on histone cytotoxicity was studied in the same manner.
Lastly, capacity of suppressing the cytotoxic activity of histone was confirmed. Since this experiment requires a certain amount of protein and an endotoxin-elimination as treatment, a protein was expressed and purified at a 500 mL culture scale, and subjected to an endotoxin-elimination treatment (FIG. 18). In the case of PTX3 N-terminal domain, about 10 mg was obtained at a 500 mL culture scale, and a loss by the endotoxin-elimination treatment was scarcely observed. […] A capacity of fragment proteins obtained at a 500 mL scale on HUVEC to suppress histone cytotoxicity was studied. […]

[1] = tested on: mice intraperitoneally administered with LPS; assay: LPS-administered mouse; type: in vivo
Method: At 0, 6 and 24 hr from the LPS administration, heparin plasma was collected, and the concentrations of mouse IL-6 and mouse VEGF were measured using ELISA kit (R&D).
The survival rate of the mice intraperitoneally administered with LPS at a concentration of 16 mg/kg is shown. The N-terminal domain of PTX3 (5 mg/kg) or control buffer was intraperitoneally administered 2 hr prior to LPS administration. In addition, the time-course changes in the plasma IL-6 and VEGF levels of the LPS-administrated mice treated with the N-terminal domain of PTX3 were measured by ELISA.

[2] = tested on: mouse subjected to cecal ligation and puncture (CLP); assay: Cecal ligation and puncture (CLP) mouse; type: in vivo; details: 5 mg/kg with gentamicin 5 mg/kg, 4 hr after CLP, versus gentamicin alone
Method: For cecal ligation and puncture (CLP) treatment, male C57BL/6 mouse was anesthetized, laparotomy was performed, and cecum was exposed and ligated. A hole is made with an injection needle at the middle between the ligated site and cecum peripheral site, and the abdomen is closed. Four hours from the CLP treatment, the N-terminal domain of PTX3 (5 mg/kg) and gentamicin (5 mg/kg), or gentamicin (5 mg/kg) alone were(was) administered to the mouse.
Mouse was subjected to cecal ligation and puncture (CLP) treatment and, 4 hr later from the treatment, the N-terminal domain of PTX3 (5 mg/kg) and gentamicin (5 mg/kg), or gentamicin (5 mg/kg) alone were(was) administered to the mouse.

histone H4 [3] = target: T3, histone H4 (Homo sapiens, UniProt P62805); assay: CD spectrum of histone H4-PTX3 complex
Method: The CD spectrum of the histone H4-PTX3 complex was measured. The N-terminal domain of PTX3 (25 μg/mL) and histone H4 (5 μg/mL) were each independently measured, and further, the histone H4-PTX3 mixture was measured (FIG. 6D).

histone H4 [4] = target: T3, histone H4; assay: ELISA binding assay; design: purchased NEB; details: immobilized recombinant histone, absorbance at 450 nm
Method: as §1
as §2, with “tag-free recombinant” for “a tagged”, “(rhPTX3)” for “fragment”, “For the” for “For”, “anti-PTX3 monoclonal” for “anti-His (6×His)”, “antibody (PPZ1228)” for “antibody”
as §2

Calf Thymus Histones = assay: Dose-dependent precipitate formation (supernatant after centrifugation); type: binding; details: PTX3 0, 12.5, 25, 50 μg/mL; histones 50 μg/mL
Method: (§3) Full-length PTX3 at each concentration (0, 12.5, 25, 50 μg/mL) was mixed with Calf Thymus Histones (50 μg/mL) or histone H4 (50 μg/mL), and the mixture was centrifuged. The obtained supernatant was subjected to immunoblotting using PPZ-1228 or SYPRO Ruby staining.

histone H4 [5] = target: T3, histone H4; assay: as above; type: binding; details: PTX3 0, 12.5, 25, 50 μg/mL; histone H4 50 μg/mL
Method: as §3

histone H4 [6] = target: T3, histone H4; assay: PTX3-histone aggregation, UV-visible absorption spectrum (310 nm); type: binding; design: purchased NEB; details: PTX3 at various concentrations mixed with histone H4
Method: 0.1 mg/mL human histone H4 was mixed with equal volume of various concentrations of Myc-tagged full-length PTX3, and UV-visible absorption spectrum was measured. A graph of absorbance at 310 nm is shown at the top.
Full-length PTX3 at each concentration was mixed with 50 μg/mL histone H4, and UV-visible absorption spectrum (wavelength 310 nm) was measured.

[7] = LPS-administrated mice, 5 mg/kg, ELISA

Substance | bindability to histone H2A (binding assay) (histone H2A) | bindability to histone H2B (binding assay) (histone H2B) | suppression of toxic activity of histone H4 on HUVEC (histone H4 on HUVEC) | inflammatory reaction caused by LPS administration (biochemical study of blood) ([1]; 5 mg/kg intraperitoneally 2 hr prior to LPS 16 mg/kg) | mortality due to LPS administration ([1]; 5 mg/kg intraperitoneally 2 hr prior to LPS 16 mg/kg, C57BL/6 mice) | plasma IL-6 level [1, 7] | plasma VEGF level [1, 7] | mortality due to the CLP treatment [2] | CD spectrum, mixed with histone H4 (histone H4 [3]; 25 μg/mL with histone H4 5 μg/mL) | CD spectrum, alone (histone H4 [3]; 25 μg/mL, measured independently) | binding to histone H4 (binding assay) (histone H4 [4]) | binding to histone H4 (binding assay) (histone H4 [4]; listed as N-terminal domain) | precipitate formation with Calf Thymus Histones (Calf Thymus Histones) | precipitate formation with histone H4 (histone H4 [5]) | aggregation with histone H4, UV-visible absorption spectrum (histone H4 [6])
N-terminal domain of PTX3: N-terminal domain human PTX3 (18-178 amino acids, SEQ ID NO: 3), tagged, expressed in CHO cells or Escherichia coli | lower than that of the full-length PTX3 | lower than that of the full-length PTX3 | suppress; also recorded: suppressed | suppressed | significantly improved mortality | suppressed | suppressed | significantly improved | did not afford a spectrum pattern showing a general secondary structure | a spectrum pattern having α-helix in the secondary structure | equivalent to that of the full-length PTX3 | strong bindability | – | – | –
full-length PTX3: full-length human pentraxin 3 (1-381 amino acids, SEQ ID NO: 2), used tag-free or Myc- and His-tagged | – | – | – | – | – | – | – | – | – | – | strong binding affinity | – | precipitated as an insoluble product | precipitated as an insoluble product | dose-dependent spectrum

Reference: US20150299277A1, “AGENT FOR TREATING OR PREVENTING SYSTEMIC INFLAMMATORY RESPONSE SYNDROME” (THE UNIVERSITY OF TOKYO, priority 2012, published 2015)
